# Results: patent US7052906
# Experiments:
# CD33 on HL60 cells = CD33 on HL60 cells (UniProt P20138); experiment: cell-based or functional assay
# soluble CD33 = soluble CD33 (UniProt P20138); experiment: cell-based or functional assay
"IL-2 production, cell surface-expressed antigen with respect to soluble antigen (CD33 on HL60 cells)","IL-2 production, change against the CD28 transmembrane receptor (fold decrease) (soluble CD33)","IL-2 production, change against the CD28 transmembrane receptor (fold increase) (CD33 on HL60 cells)",Substance
3 fold deficit,–,–,P67scFv/h.CD28/CD28Tm/FcRγ chimeric receptor (from UniProt P10747 118-134; P10747 135-161; P30273 45-86)
> 2 fold deficit,–,–,P67scFv/h.CD28/CD28Tm/TCRζ receptor (from UniProt P10747 118-134; P10747 135-161; P20963 31-142)
5 fold excess,< 3,> 5,P67scFv/h.CD28/Tm24/FcRγ chimeric receptor (from UniProt P10747 118-134; P30273 45-86)
2 fold excess,–,–,P67scFv/h.CD28/Tm24/TCRζ chimeric receptor (from UniProt P10747 118-134; P20963 31-142)
5 fold excess,< 3,> 5,P67scFv/h.CD28/Tm31/FcRγ chimeric receptor (from UniProt P10747 118-134; P30273 45-86)
